From the supplement of paper PMC6757056 come the findings set out here.

To fix the notation:
B1: library; a variant is named by its letters at N, in order (parent)
chain: GCUGUCACCGAGAAACUGUGAAGUAUAUCUUAAACCUGGGCACUUAAAAGAUAUAUGGAGUUAGUAGUGCAACCUGCUCGGUCUGAUGAGUCCNNNNNNGGACGAAACAGC

± gives the standard deviation of the averaged measurements.

Variants of B1 are the subject of data set [1]. The data set is described as follows: normalized RNA/DNA level without ligand (relative to sTRSVctl = 100) (log10 (% of sTRSVctl)); HEK293T; ligand: cyclic di-GMP (c-di-GMP-II aptamer); higher = less ribozyme self-cleavage, higher mRNA level. The note with it: reporter: mCherry (pCS4076), ligand present: no. In outline: (§1)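 Ribozyme switch library plasmids linked to reporters were introduced into HEK293T cells at 4 µg per 6-well well, with ligand, if any, added 1 h before. Total RNA was extracted with EDTA 72 h later, reverse-transcribed, amplified, barcoded and sequenced. RNA level was computed from RNA over DNA reads relative to a spiked-in non-cleaving sequence or the top sequences, then scaled and log-transformed. The top set was 25 sequences, values were ×100 and log10, and the cutoff was ≥100 DNA reads.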

Variants of B1 are the subject of data set [2]. The data set is described as follows: normalized RNA/DNA level with ligand (relative to sTRSVctl = 100) (log10 (% of sTRSVctl)); HEK293T; ligand: cyclic di-GMP (c-di-GMP-II aptamer); ligand concentration (+) RNA-Seq: 1 mM; higher = less ribozyme self-cleavage, higher mRNA level. The note with it: reporter: mCherry (pCS4076), ligand present: yes. In outline: as §1

As to UGCGUC, in data set [1], the “normalized RNA/DNA level without ligand (log10)” value came to 1.75 ± 0.019. The “normalized RNA/DNA level with ligand (log10)” value in data set [2] worked out at 1.85 ± 0.13.
For UGCGUA, in that order: 1.6 ± 0.029 and 1.81 ± 0.1.
AGGCCU: the “normalized RNA/DNA level without ligand (log10)” value in data set [1] came to 1.768 ± 0.013. In data set [2], the “normalized RNA/DNA level with ligand (log10)” value amounted to 1.89 ± 0.099.
For AGGCCC, the “normalized RNA/DNA level without ligand (log10)” value in data set [1] is 1.86 ± 0.05. Besides, in data set [2], the “normalized RNA/DNA level with ligand (log10)” value was 1.95 ± 0.1.
Regarding AGGCCA, the “normalized RNA/DNA level without ligand (log10)” value in data set [1] turned out to be 1.721 ± 0.017. Besides, in data set [2], the “normalized RNA/DNA level with ligand (log10)” value was 1.85 ± 0.096.
In the case of UGGAAG, the “normalized RNA/DNA level without ligand (log10)” value in data set [1] is 1.68 ± 0.026. Also, in data set [2], the “normalized RNA/DNA level with ligand (log10)” value came out at 1.81 ± 0.17.
On to UGGAAA, for which the “normalized RNA/DNA level without ligand (log10)” value in data set [1] stood at 1.626 ± 0.0078. The “normalized RNA/DNA level with ligand (log10)” value in data set [2] stood at 1.83 ± 0.059.
AGGACU: the “normalized RNA/DNA level without ligand (log10)” value in data set [1] was found to be 1.66 ± 0.014. The “normalized RNA/DNA level with ligand (log10)” value in data set [2] amounted to 1.82 ± 0.088.
Turning to AGGACG, in data set [1], the “normalized RNA/DNA level without ligand (log10)” value is 1.589 ± 0.0076. Further, the “normalized RNA/DNA level with ligand (log10)” value in data set [2] amounted to 1.7 ± 0.1.
For UGGCCA, the “normalized RNA/DNA level without ligand (log10)” value in data set [1] stood at 1.79 ± 0.029. In data set [2], the “normalized RNA/DNA level with ligand (log10)” value is 1.86 ± 0.12.
On to UGGCCU, for which the “normalized RNA/DNA level without ligand (log10)” value in data set [1] came to 1.84 ± 0.12. Further, the “normalized RNA/DNA level with ligand (log10)” value in data set [2] turned out to be 1.97 ± 0.15.
For UGGCCC, the “normalized RNA/DNA level without ligand (log10)” value in data set [1] worked out at 1.88 ± 0.062. In data set [2], the “normalized RNA/DNA level with ligand (log10)” value was determined as 1.96 ± 0.094.
In the case of UGGCCG, the “normalized RNA/DNA level without ligand (log10)” value in data set [1] was 1.9 ± 0.067. In addition, the “normalized RNA/DNA level with ligand (log10)” value in data set [2] came out at 1.96 ± 0.1.
CGGGGU: the “normalized RNA/DNA level without ligand (log10)” value in data set [1] worked out at 1.72 ± 0.0034. For the same variant, the “normalized RNA/DNA level with ligand (log10)” value in data set [2] came out at 1.83 ± 0.13.
For CGGGGG, in that order: 1.62 ± 0.059 and 1.77 ± 0.026.
Turning to UGGUUC, the “normalized RNA/DNA level without ligand (log10)” value in data set [1] was found to be 1.7 ± 0.033. Also, in data set [2], the “normalized RNA/DNA level with ligand (log10)” value was 1.83 ± 0.12.
For UGGUUA, in that order: 1.67 ± 0.019 and 1.85 ± 0.042.
On to AGGCGC, for which the “normalized RNA/DNA level without ligand (log10)” value in data set [1] worked out at 1.74 ± 0.075. Also, in data set [2], the “normalized RNA/DNA level with ligand (log10)” value stood at 1.86 ± 0.088.
With AGGCGA, the “normalized RNA/DNA level without ligand (log10)” value in data set [1] came out at 1.56 ± 0.037. Moreover, the “normalized RNA/DNA level with ligand (log10)” value in data set [2] amounted to 1.67 ± 0.13.
Turning to AGGCGU, the “normalized RNA/DNA level without ligand (log10)” value in data set [1] was 1.609 ± 0.0044. Besides, the “normalized RNA/DNA level with ligand (log10)” value in data set [2] is 1.76 ± 0.12.
Turning to AGGCGG, the “normalized RNA/DNA level without ligand (log10)” value in data set [1] worked out at 1.79 ± 0.026. Moreover, the “normalized RNA/DNA level with ligand (log10)” value in data set [2] turned out to be 1.88 ± 0.063.
In the case of GGGGUC, the “normalized RNA/DNA level without ligand (log10)” value in data set [1] stood at 1.654 ± 0.0072. In addition, in data set [2], the “normalized RNA/DNA level with ligand (log10)” value amounted to 1.79 ± 0.12.
For GGGGUA, the “normalized RNA/DNA level without ligand (log10)” value in data set [1] came to 1.52 ± 0.018. Besides, in data set [2], the “normalized RNA/DNA level with ligand (log10)” value stood at 1.62 ± 0.13.
Take AGGGUU: in data set [1], the “normalized RNA/DNA level without ligand (log10)” value came out at 1.6902 ± 0.0014. In addition, the “normalized RNA/DNA level with ligand (log10)” value in data set [2] was found to be 1.77 ± 0.056.
AGGGUA: the “normalized RNA/DNA level without ligand (log10)” value in data set [1] worked out at 1.53 ± 0.035. Besides, the “normalized RNA/DNA level with ligand (log10)” value in data set [2] amounted to 1.6 ± 0.12.
As to AGGGUG, in data set [1], the “normalized RNA/DNA level without ligand (log10)” value was 1.64 ± 0.046. In addition, the “normalized RNA/DNA level with ligand (log10)” value in data set [2] is 1.7 ± 0.12.
For AGGGUC, in that order: 1.71 ± 0.07 and 1.85 ± 0.18.
Consider AGGAAC, for which the “normalized RNA/DNA level without ligand (log10)” value in data set [1] amounted to 1.54 ± 0.12. The “normalized RNA/DNA level with ligand (log10)” value in data set [2] was 1.68 ± 0.12.
With CGGUCG, in data set [1], the “normalized RNA/DNA level without ligand (log10)” value is 1.78 ± 0.042. The “normalized RNA/DNA level with ligand (log10)” value in data set [2] stood at 1.9 ± 0.13.
For CGGUCU, in that order: 1.56 ± 0.064 and 1.72 ± 0.11.
Consider AGGUUA, for which the “normalized RNA/DNA level without ligand (log10)” value in data set [1] turned out to be 1.54 ± 0.037. Further, the “normalized RNA/DNA level with ligand (log10)” value in data set [2] turned out to be 1.64 ± 0.18.
AGGUUC: the “normalized RNA/DNA level without ligand (log10)” value in data set [1] came out at 1.75 ± 0.026. Further, in data set [2], the “normalized RNA/DNA level with ligand (log10)” value came out at 1.86 ± 0.14.
As to AGCUGA, the “normalized RNA/DNA level without ligand (log10)” value in data set [1] was 1.58 ± 0.16. Moreover, the “normalized RNA/DNA level with ligand (log10)” value in data set [2] was 1.72 ± 0.067.
On the same counts, the results for AGCUGU are 1.667 ± 0.01 and 1.8 ± 0.073.
With AGCUGG, the “normalized RNA/DNA level without ligand (log10)” value in data set [1] is 1.64 ± 0.043. The “normalized RNA/DNA level with ligand (log10)” value in data set [2] amounted to 1.81 ± 0.12.
For AGCGGG, the “normalized RNA/DNA level without ligand (log10)” value in data set [1] is 1.76 ± 0.043. Also, the “normalized RNA/DNA level with ligand (log10)” value in data set [2] came out at 1.9 ± 0.083.
For the variant AGCGGC, the “normalized RNA/DNA level without ligand (log10)” value in data set [1] was 1.731 ± 0.0051. The “normalized RNA/DNA level with ligand (log10)” value in data set [2] came out at 1.87 ± 0.074.
Regarding GGGUUC, the “normalized RNA/DNA level without ligand (log10)” value in data set [1] stood at 1.79 ± 0.072. Also, the “normalized RNA/DNA level with ligand (log10)” value in data set [2] came to 1.89 ± 0.12.
For GGGACA, in that order: 1.7 ± 0.042 and 1.75 ± 0.11.
Turning to GGGACU, the “normalized RNA/DNA level without ligand (log10)” value in data set [1] was found to be 1.68 ± 0.031. Also, in data set [2], the “normalized RNA/DNA level with ligand (log10)” value was 1.83 ± 0.056.
Consider GGGACC, for which the “normalized RNA/DNA level without ligand (log10)” value in data set [1] amounted to 1.84 ± 0.063. Moreover, the “normalized RNA/DNA level with ligand (log10)” value in data set [2] was 1.9 ± 0.15.
Regarding UGGUGU, the “normalized RNA/DNA level without ligand (log10)” value in data set [1] turned out to be 1.6 ± 0.11. Besides, the “normalized RNA/DNA level with ligand (log10)” value in data set [2] was determined as 1.81 ± 0.063.
As for UGGUGC, the “normalized RNA/DNA level without ligand (log10)” value in data set [1] came out at 1.72 ± 0.053. Besides, the “normalized RNA/DNA level with ligand (log10)” value in data set [2] came to 1.86 ± 0.099.
On the same counts, the results for UGGUGG are 1.68 ± 0.017 and 1.81 ± 0.12.
For AGCUAG, in data set [1], the “normalized RNA/DNA level without ligand (log10)” value was 1.54 ± 0.026. In data set [2], the “normalized RNA/DNA level with ligand (log10)” value is 1.72 ± 0.16.
For AGCUAU, the “normalized RNA/DNA level without ligand (log10)” value in data set [1] came out at 1.7 ± 0.05. Besides, the “normalized RNA/DNA level with ligand (log10)” value in data set [2] came to 1.84 ± 0.12.
For AGCUAA, in that order: 1.49 ± 0.02 and 1.7 ± 0.13.
As to AGCUAC, the “normalized RNA/DNA level without ligand (log10)” value in data set [1] turned out to be 1.709 ± 0.017. The “normalized RNA/DNA level with ligand (log10)” value in data set [2] was determined as 1.81 ± 0.14.
Turning to CGCUCG, the “normalized RNA/DNA level without ligand (log10)” value in data set [1] stood at 1.77 ± 0.077. For the same variant, the “normalized RNA/DNA level with ligand (log10)” value in data set [2] was 1.88 ± 0.16.
On to CGCUCC, for which the “normalized RNA/DNA level without ligand (log10)” value in data set [1] turned out to be 1.77 ± 0.035. Further, in data set [2], the “normalized RNA/DNA level with ligand (log10)” value was 1.89 ± 0.084.
CGCUCA: in data set [1], the “normalized RNA/DNA level without ligand (log10)” value turned out to be 1.47 ± 0.05. Further, the “normalized RNA/DNA level with ligand (log10)” value in data set [2] was found to be 1.68 ± 0.15.
Turning to CGCGUU, in data set [1], the “normalized RNA/DNA level without ligand (log10)” value amounted to 1.67 ± 0.021. Also, in data set [2], the “normalized RNA/DNA level with ligand (log10)” value came to 1.86 ± 0.12.
For the variant CGCGUG, the “normalized RNA/DNA level without ligand (log10)” value in data set [1] was found to be 1.62 ± 0.034. Also, in data set [2], the “normalized RNA/DNA level with ligand (log10)” value worked out at 1.79 ± 0.12.
For the variant CGCGUC, the “normalized RNA/DNA level without ligand (log10)” value in data set [1] was found to be 1.77 ± 0.062. Further, in data set [2], the “normalized RNA/DNA level with ligand (log10)” value stood at 1.88 ± 0.15.
For GGGCCC, the “normalized RNA/DNA level without ligand (log10)” value in data set [1] was 1.92 ± 0.07. Also, the “normalized RNA/DNA level with ligand (log10)” value in data set [2] came out at 1.99 ± 0.056.
On the same counts, the results for AGGAGG are 1.6462 ± 0.0014 and 1.74 ± 0.1.
As to AGGAGC, the “normalized RNA/DNA level without ligand (log10)” value in data set [1] is 1.61 ± 0.065. In data set [2], the “normalized RNA/DNA level with ligand (log10)” value is 1.7 ± 0.13.
On the same counts, the results for AGGAGU are 1.52 ± 0.084 and 1.67 ± 0.058.
